# Laboratory results reported in the nanobody polyreactivity screen of Harvey et al. (2022).
# Assay: yeast display, Sf9 membrane polyspecificity reagent, FACS + sequencing; frameworks hold sequencing errors
# In short: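 Sorting gates, low and high (top ~1%), were placed on anti-HA fluorescence to track expression and on streptavidin fluorescence to track reagent binding. A clone's polyreactivity label is taken from the gate it came out of. The reagent was 10% biotinylated, detergent-solubilized Sf9 membrane, applied for 1 hour at 4 °C to galactose-induced yeast display cells.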
row,Sequence,polyreactivity (PSR sort gate)
1,QVQLVESGGGLVQAGGSLRLSCAAYGNTFEHYAKGWYRQAPVKERELVAAISNSGGSTYYADSVKGRFTLSRDNAKNTVYLQMNSLKPEDTAVYYCNARGRASATVRLGRPDPFGDWGQGTQVTVSS,high polyreactivity
2,QVQLVESGGGLVQAGGSLRLSCAAYGRIFIGYTMGWYRQAPGNERELVAVISYRGGRTYYADSVKGRFTISRDNAKNTVYLQMNSLKPEDTAVYYCAAYRPGVISGFDYWGQGTQVTVSS,high polyreactivity
3,QVQLVESGGGLVQAGGSLRLSCAAYGRIFNDYTMGWYRQAPGKERELVADITNRDTSTSYADSVKGRFIISRDNANNTVYLQMYILKPDDTAVYYCNAQQVIVVYRPGDYWGQGTQVTVSS,low polyreactivity
4,QVQLVESGGGLVQAGGSLRLSCAAYGRIFSAYVMGWYRQAPGKERELVAAISSTGSTYYADSAKGRFTISRDNAKNTVYLQMNSLKPEDTAVYYCAKRFFQQGYYYWGQGTQVTVSS,low polyreactivity
5,QVQLVESGGGLVQAGGSLRLSCAAYGRIFTSYVMGWYRQAPGKERELVAGINSGRRTNYADSVKGRFTISRDNAKNTVYLQMNSLKPEDTAVYYCAKAGYWYKAHYYWGQGTQVTVSS,high polyreactivity
6,QVQLVESGGGLVQAGGSLRLSCAAYGRIFYRNVMGWYRQAPGKERELVAAITYRTGSTYYADSVKGRFTISRDNAKNTVYLQMNSLKPEDTAVYYCNVVPRNGQTWGYEYDYWGQGTQVTVSS,high polyreactivity
7,QVQLVESGGGLVQAGGSLRLSCAAYGSIIGVNAMGWYRPAPGKERELVAAISSTGGSTYYADSVKGRFTISRDNAKNTVYLQMNSLKPEDTAVYYCNTDYSKSIGDGYAGFDYWGQGTQVTVSS,low polyreactivity
8,QVQLVESGGGLVQAGGSLRLSCAAYGSIISYTMGWYRQAPGKERELVAAITSGRITYYADSVKGRFTISRDNAKNTVSLQMNRLKQEDTAVYYCNNDVGFTRPLYYWGQGTQVTVSS,low polyreactivity
9,QVQLVESGGGLVQAGGSLRLSCAAYGSILLRYAMGWYRQAPGKERELVAAIRTIGASTYYADSVKGRFTISRDNAKNTVYLQMNSLKPEDTAVYYCNGYLAEVLQLGKCRLYDYWGQSTQVTVSS,low polyreactivity
10,QVQLVESGGGLVQAGGSLRLSCAAYGSILRTYAMGWYRQAPGKERELVAAISSSGGSTYYADSVKGRFTISRDNAKNTVYLQMNSLKPEDTAVYYCAARYRYYYTRYDYWGQGTQVTVSS,high polyreactivity
11,QVQLVESGGGLVQAGGSLRLSCAAYGSLFDSNAMGWYRQAPRKERELVAAITVSGTSTYYADSVNGRFTISRDNEKNTVYLQMNSLKPEYTEVYYCAAAQEYLTDHDYWGQGTQVTVSS,low polyreactivity
12,QVQLVESGGGLVQAGGSLRLSCAAYGSNFVFNAMGWYRQAPGKERELVAAISNGDGTNYADSVKGRFTISRDNAKNTVYFQINSLKPEDTAVYYCAAVWTTQIVIEYDYWGQGSQVTVSS,low polyreactivity
13,QVQLVESGGGLVQAGGSLRLSCAAYGSSFNHYSMGWYRQAPGKERELVAAISWNGGSTYYADSVKGRFTISRDNAKNTVYLQMNSLKPEDTAVYYCNALVTTTPRYDYWGQGTQVTVSS,high polyreactivity
14,QVQLVESGGGLVQAGGSLRLSCAAYGSTFASYSMGWYRQAPGKERELVADISKSGTRTYYADSVKGRFTISRDNAKNTVYLQMNSLKPEDTAVYYCATGQYLRTSRFYYWGHGTQVTVSS,high polyreactivity
15,QVQLVESGGGLVQAGGSLRLSCAAYGSTFEYYVMGWYRQAPGKERELVAAISGSGGGTYYADSVKGRFTISRDNAKNTVSLQMNSLKPEDTAVYYCAAVATLEKYDYWGQGNQVTVSS,low polyreactivity
16,QVQLVESGGGLVQAGGSLRLSCAAYGSTFGHYAMGWDRQAPGKERELVAAISSSGGSTYYADSVKGRFTISRDNAKNTVYLQMNSLKPEDTAVYYCAARYYHYSYAFGYWGQGTQVTVSS,high polyreactivity

row,Sequence,polyreactivity (PSR sort gate)
1,QVQLVESGGGLVQAGGSLRLSCAAYGSTFRYNPLGWYRQAPGKETELVAANTSGGGTNSADSVKGRFTISRDNAKNTVYLQMNSLKPEDTAVYYCAAPWGLGSELLKRDYWGQGTQVTVSS,low polyreactivity
2,QVQLVESGGGLVQAGGSLRLSCAAYGSTFYANAMGWYRQAPGKERELVAAISSGGSTYYADSVKGRFTISRYNAKNTVYLQMNSLKPEDTAVYYCAKPFYSYRYGFGYWGQGTQVTVSS,low polyreactivity
3,QVQLVESGGGLVQAGGSLRLSCAAYGSTVSSNAMGWYRQAPGKERELVAGISSSDVGTYYADSVKGRFTISRDYANNTVYLEMNSLKPDDTAVYYCNADHTGQFPSKLFPLGDNYWGQGTQVTVSS,low polyreactivity
4,QVQLVESGGGLVQAGGSLRLSCAAYGYTLYHNAMGWYRQAPGKERELVAAITSSGGRTYYADSVKGRFTISRDNAKNTVYLQMNRLKPDDTAVYYCNAVVWVYSISLSYTGTKYEYWGQGTQVTVSS,high polyreactivity
5,QVQLVESGGGLVQAGGSLRLSCADSGFIFSLYAMGWYRQAPGKERELVAAISKRGGSTNYADSVKGRFTISRDYAKNTVYLQMNSLKPEDTAVYYCAKARPGFLYDHWVQGTQVTVSS,high polyreactivity
6,QVQLVESGGGLVQAGGSLRLSCADSGFISGGNDMGWNRQAPGKEREFVAAIDNTGSTYYADSVKGRFTISRDNAKNTVYLQMNSLKPEDSAVYYCNAEVSEDYVDNDFWGQGTQVTVSS,low polyreactivity
7,QVQLVESGGGLVQAGGSLRLSCADSGFTFDYYTMGWYRQAPGKDRELVAAITYSGGITYYADSVKGRFTISRDNAKNTVYLQMNSLKPEDTAVYYCNARYSPRTGRGRHVTYYYWGQGTQVTVSS,high polyreactivity
8,QVQLVESGGGLVQAGGSLRLSCADSGFTFISNAKGWYRQAPGKERELVAAISSSGGRTYYADSVKGRFTISRDNAKNTVYLQMNSLKPEDTAVYYCNADRSLLYSRKIEYDYWGQGTQVTVSS,low polyreactivity
9,QVQLVESGGGLVQAGGSLRLSCADSGFTFYLYAMGWYRQAPGKERALVAAITGSGGSKYYADSVKGRFTISRYNAKNTVYLQMNSLKPEDTAVYYCAAVFKDSRYQYGFGYDYWGQGTQVTVSS,high polyreactivity
10,QVQLVESGGGLVQAGGSLRLSCADSGGTFKLYAMGWYSQAPAKESELVAAISRRGGSTYYADSVKGRFTISRDNAKNTVYLQMNSLKPDDTAVYYCAAPGPTQSTQRGGYWGQGTQVTVSS,high polyreactivity
11,QVQLVESGGGLVQAGGSLRLSCADSGIIFLEYAMGWYRQAPGKERELVAAISSDDGSSTYYADSVKGRFTISRDNAKNTVYLQMNSLKPEDTAVYYCAAYGGGGYYYDYEYWGQGTQVTVSS,high polyreactivity
12,QVQLVESGGGLVQAGGSLRLSCADSGIIFRYYAMGWYRQAPGKERELVADISRRGGSTYYADSVKGRFTISRDNAKNTVYLQMNSLKPEDTAVYYCAAKYRVYNYSPWGPYNYWGQVTQVTVSS,high polyreactivity
13,QVQLVESGGGLVQAGGSLRLSCADSGIIFYYNAMGWYRQAPGKEREFVAAIDDRGDSTYYADSVKGRFTISRDNAKNTVYLQMNSLKPEDTAVYYCAARDGYLYFDAMDYWGQGTLVTVSS,low polyreactivity
14,QVQLVESGGGLVQAGGSLRLSCADSGITFYIYAMGWYRQAPGKERELVATISWSDGRTYYADSVKGRFTISRDNAKNTVYLQMNRLKPEDTAVYYCAADWWYYQFDYEYWGQGTQVTVSS,low polyreactivity
15,QVQLVESGGGLVQAGGSLRLSCADSGITLVYDGMGWDIQAPGKERELVAAISWTGGSTFYADSVKGLFTISLDNAKKTVYLQMNSLKPEDTAVYYCAADRGYFYSRIQVDSDYWGQGTQVTVSS,low polyreactivity
